The record followed here is article PMC4434323.

Series [1] concerns the target T1, ceh-90 (R03E1.4) (Caenorhabditis elegans) (UniProt Q69YW8).
T1 sequence: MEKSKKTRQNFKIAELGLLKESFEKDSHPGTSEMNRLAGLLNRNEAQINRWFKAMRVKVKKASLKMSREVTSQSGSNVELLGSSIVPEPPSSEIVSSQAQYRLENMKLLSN

The target of series [2] is T2, eyg-1 (Y53C12C.1) (Caenorhabditis elegans) (UniProt O01996).
T2 sequence: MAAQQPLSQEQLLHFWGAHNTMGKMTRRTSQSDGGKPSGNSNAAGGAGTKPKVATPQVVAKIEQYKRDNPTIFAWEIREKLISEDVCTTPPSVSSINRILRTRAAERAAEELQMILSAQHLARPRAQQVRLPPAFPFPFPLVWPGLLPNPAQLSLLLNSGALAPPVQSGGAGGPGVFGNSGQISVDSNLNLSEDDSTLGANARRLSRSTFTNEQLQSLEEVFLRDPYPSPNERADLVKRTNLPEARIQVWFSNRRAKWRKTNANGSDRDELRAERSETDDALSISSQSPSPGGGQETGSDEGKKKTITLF

Series [3] deals with T3, ceh-51 (Y80D3A.3) (Caenorhabditis elegans) (UniProt Q9U1R1).
T3 sequence: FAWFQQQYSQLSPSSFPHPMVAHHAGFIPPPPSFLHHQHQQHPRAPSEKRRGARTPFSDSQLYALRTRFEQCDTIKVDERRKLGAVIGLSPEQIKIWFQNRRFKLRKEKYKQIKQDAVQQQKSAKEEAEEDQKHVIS

The target of series [4] is T4, ceh-23 (ZK652.5) (Caenorhabditis elegans) (UniProt P34663).
T4 sequence: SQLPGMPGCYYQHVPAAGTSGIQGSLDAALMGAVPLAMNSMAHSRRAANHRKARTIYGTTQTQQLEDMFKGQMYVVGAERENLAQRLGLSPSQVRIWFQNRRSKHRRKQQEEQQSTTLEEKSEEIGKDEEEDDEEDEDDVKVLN

Series [5] addresses T5, C07E3.6 (C07E3.6) (Caenorhabditis elegans) (UniProt Q17792).
T5 sequence: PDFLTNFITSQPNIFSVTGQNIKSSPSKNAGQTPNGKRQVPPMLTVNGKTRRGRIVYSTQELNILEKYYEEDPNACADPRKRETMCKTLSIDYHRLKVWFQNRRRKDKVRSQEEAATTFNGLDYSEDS

Series [6] deals with T6, ceh-18 (ZC64.3) (Caenorhabditis elegans) (UniProt P41934).
T6 sequence: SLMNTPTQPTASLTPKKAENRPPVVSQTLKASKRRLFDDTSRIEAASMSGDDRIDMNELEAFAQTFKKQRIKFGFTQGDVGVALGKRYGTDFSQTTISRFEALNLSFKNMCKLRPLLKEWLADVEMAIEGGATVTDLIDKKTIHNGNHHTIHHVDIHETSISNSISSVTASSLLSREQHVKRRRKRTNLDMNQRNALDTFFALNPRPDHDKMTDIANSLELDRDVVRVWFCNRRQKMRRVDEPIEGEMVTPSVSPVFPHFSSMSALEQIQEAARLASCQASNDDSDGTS

The target in series [7] is ceh-36 (C37E2.4) (Caenorhabditis elegans) (UniProt Q93352).
ceh-36 (C37E2.4) (Caenorhabditis elegans), sequence (Q93352 6-165): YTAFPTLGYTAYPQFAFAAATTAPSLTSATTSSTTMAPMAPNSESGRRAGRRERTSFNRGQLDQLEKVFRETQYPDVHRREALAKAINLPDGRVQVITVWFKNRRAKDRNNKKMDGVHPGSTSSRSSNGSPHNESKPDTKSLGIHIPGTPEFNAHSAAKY
Series [8] deals with ceh-37 (C37E2.5) (Caenorhabditis elegans) (UniProt Q93356).
ceh-37 (C37E2.5) (Caenorhabditis elegans), sequence (Q93356 1-148): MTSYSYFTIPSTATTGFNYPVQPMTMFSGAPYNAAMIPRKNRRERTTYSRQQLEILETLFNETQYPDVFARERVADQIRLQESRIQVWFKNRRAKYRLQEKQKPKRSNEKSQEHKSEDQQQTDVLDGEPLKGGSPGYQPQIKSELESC
For series [9], the system named is ceh-53 (C09G12.1) (Caenorhabditis elegans).
ceh-53 (C09G12.1) (Caenorhabditis elegans), sequence (chain, as listed by the source): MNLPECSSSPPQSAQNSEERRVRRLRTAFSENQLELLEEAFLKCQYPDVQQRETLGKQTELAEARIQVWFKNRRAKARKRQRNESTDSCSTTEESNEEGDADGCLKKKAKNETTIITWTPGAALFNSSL

As to “AGGTTTTA (double strand) [8-mer AGGTTTTA]”, in series [1], the binding signal (PBM E-score (-0.5 to 0.5)) was determined as 0.496. In turn, “ATAAAACC (double strand) [8-mer ATAAAACC]” returned a binding signal (PBM E-score (-0.5 to 0.5)) in series [1] of 0.495.

“ATTAATTG (double strand) [8-mer ATTAATTG]”: the results for the binding signal (PBM E-score (-0.5 to 0.5)) in series [2] and in series [3] were 0.478 and 0.472, respectively. For “TCAATTAA (double strand) [8-mer TCAATTAA]”, the binding signal (PBM E-score (-0.5 to 0.5)) in [2] is 0.48; in series [3], 0.467.

On to “GTAATTAC (double strand) [8-mer GTAATTAC]”, for which the binding signal (PBM E-score (-0.5 to 0.5)) is 0.482 in series [2] and 0.478 in [3]. Consider “TATTAATA (double strand) [8-mer TATTAATA]”, for which, in series [3], the binding signal (PBM E-score (-0.5 to 0.5)) came out at 0.483. As to “ATATAATA (double strand) [8-mer ATATAATA]”, the binding signal (PBM E-score (-0.5 to 0.5)) in [3] was 0.472. For “GATAATTA (double strand) [8-mer GATAATTA]”, the binding signal (PBM E-score (-0.5 to 0.5)) came to 0.492 in [4], 0.497 in [5] and 0.48 in [2]. Consider “ATTAATAA (double strand) [8-mer ATTAATAA]”, for which the binding signal (PBM E-score (-0.5 to 0.5)) in series [3] is 0.474. For “TATGCATA (double strand) [8-mer TATGCATA]”, the binding signal (PBM E-score (-0.5 to 0.5)) in series [6] was 0.497. For “ATATGCAC (double strand) [8-mer ATATGCAC]”, in series [6], the binding signal (PBM E-score (-0.5 to 0.5)) came out at 0.477.

Take “ATTAATAG (double strand) [8-mer ATTAATAG]”: the binding signal (PBM E-score (-0.5 to 0.5)) in series [3] stood at 0.478. On to “AATATGCA (double strand) [8-mer AATATGCA]”, for which the binding signal (PBM E-score (-0.5 to 0.5)) in [6] is 0.482. “GTAATTAA (double strand) [8-mer GTAATTAA]”: the binding signal (PBM E-score (-0.5 to 0.5)) came to 0.492 in series [4] and 0.497 in [5]. Sequence “ATTAATGA (double strand) [8-mer ATTAATGA]” had a binding signal (PBM E-score (-0.5 to 0.5)) in [3] of 0.469. Regarding “TATGCAAA (double strand) [8-mer TATGCAAA]”, in series [6], the binding signal (PBM E-score (-0.5 to 0.5)) stood at 0.486. In [1], “ACTAAAAC (double strand) [8-mer ACTAAAAC]” had a binding signal (PBM E-score (-0.5 to 0.5)) of 0.487. As to “TAATTACA (double strand) [8-mer TAATTACA]”, the binding signal (PBM E-score (-0.5 to 0.5)) in series [3] was found to be 0.467. In turn, “GGGTTTTA (double strand) [8-mer GGGTTTTA]” registered a binding signal (PBM E-score (-0.5 to 0.5)) in series [1] of 0.498. As to “ATCAATTA (double strand) [8-mer ATCAATTA]”, in series [2], the binding signal (PBM E-score (-0.5 to 0.5)) was 0.475. For “GTTAAAAC (double strand) [8-mer GTTAAAAC]”, the binding signal (PBM E-score (-0.5 to 0.5)) in series [1] was 0.492. Turning to “CTAATTAA (double strand) [8-mer CTAATTAA]”, the binding signal (PBM E-score (-0.5 to 0.5)) amounted to 0.498 in series [4], 0.498 in [5] and 0.489 in series [2]. On to “AATTATGC (double strand) [8-mer AATTATGC]”, for which the binding signal (PBM E-score (-0.5 to 0.5)) in [6] was determined as 0.484. In series [3], “GCTATTAA (double strand) [8-mer GCTATTAA]” returned a binding signal (PBM E-score (-0.5 to 0.5)) of 0.467.

For the sequence “GCGGATTA (double strand) [8-mer GCGGATTA]”, the binding signal (PBM E-score (-0.5 to 0.5)) in series [7] worked out at 0.491; in series [8], 0.491; in [9] it was 0.494. Regarding “CTTAATTA (double strand) [8-mer CTTAATTA]”, the binding signal (PBM E-score (-0.5 to 0.5)) came out at 0.494 in [4], 0.497 in [5] and 0.482 in [2]. Take “ATGCGCAT (double strand) [8-mer ATGCGCAT]”: the binding signal (PBM E-score (-0.5 to 0.5)) in [2] is 0.475.

As for “GTTAATTA (double strand) [8-mer GTTAATTA]”, the binding signal (PBM E-score (-0.5 to 0.5)) in [4] is 0.497; in series [5], 0.498; in [2], 0.481. Take “CCTAATTA (double strand) [8-mer CCTAATTA]”: the figures for the binding signal (PBM E-score (-0.5 to 0.5)) in [4] and in series [5] were 0.495 and 0.496, respectively. “GCAATTAA (double strand) [8-mer GCAATTAA]” gave a binding signal (PBM E-score (-0.5 to 0.5)) in series [3] of 0.473.

With “AGTTTTAA (double strand) [8-mer AGTTTTAA]”, the binding signal (PBM E-score (-0.5 to 0.5)) in [1] worked out at 0.492.

As to “CAATTAAC (double strand) [8-mer CAATTAAC]”, the binding signal (PBM E-score (-0.5 to 0.5)) in series [5] is 0.495; in [2], 0.476. Consider “AAGGATTA (double strand) [8-mer AAGGATTA]”, for which the binding signal (PBM E-score (-0.5 to 0.5)) came out at 0.492 in [7], 0.493 in series [8] and 0.495 in series [9].

In turn, “ATAATTAA (double strand) [8-mer ATAATTAA]” registered a binding signal (PBM E-score (-0.5 to 0.5)) in series [4] of 0.493.

“GGTTTTAA (double strand) [8-mer GGTTTTAA]” had a binding signal (PBM E-score (-0.5 to 0.5)) in series [1] of 0.498. Turning to “TTAATTAA (double strand) [8-mer TTAATTAA]”, the results for the binding signal (PBM E-score (-0.5 to 0.5)) in series [4], in series [5] and in series [2] were 0.497, 0.496 and 0.487, respectively.

“AGTTTTAG (double strand) [8-mer AGTTTTAG]” had a binding signal (PBM E-score (-0.5 to 0.5)) in [1] of 0.486.

As for “AAGTTTTA (double strand) [8-mer AAGTTTTA]”, in [1], the binding signal (PBM E-score (-0.5 to 0.5)) was 0.492.

The sequence “CTTAAAAC (double strand) [8-mer CTTAAAAC]” came in with a binding signal (PBM E-score (-0.5 to 0.5)) in series [1] of 0.494. For “GGTAATTA (double strand) [8-mer GGTAATTA]”, the binding signal (PBM E-score (-0.5 to 0.5)) in [4] came to 0.494; in series [5], 0.497. As to “TAAAACCA (double strand) [8-mer TAAAACCA]”, the binding signal (PBM E-score (-0.5 to 0.5)) in [1] was found to be 0.488.

Take “ACTAATTA (double strand) [8-mer ACTAATTA]”: the results for the binding signal (PBM E-score (-0.5 to 0.5)) in series [4], in [5] and in series [2] were 0.495, 0.498 and 0.477, respectively. “GGGTTTAA (double strand) [8-mer GGGTTTAA]” yielded a binding signal (PBM E-score (-0.5 to 0.5)) in [1] of 0.487. For the sequence “ATTAATTA (double strand) [8-mer ATTAATTA]”, the binding signal (PBM E-score (-0.5 to 0.5)) was 0.495 in series [4], 0.495 in series [5] and 0.474 in series [3]. As for “GGTTTTTA (double strand) [8-mer GGTTTTTA]”, in [1], the binding signal (PBM E-score (-0.5 to 0.5)) turned out to be 0.485. In [3], “ATTAAGTG (double strand) [8-mer ATTAAGTG]” yielded a binding signal (PBM E-score (-0.5 to 0.5)) of 0.472. “CCAATTAA (double strand) [8-mer CCAATTAA]”: the binding signal (PBM E-score (-0.5 to 0.5)) in series [2] was 0.479. Regarding “CGGATTAA (double strand) [8-mer CGGATTAA]”, the binding signal (PBM E-score (-0.5 to 0.5)) in series [7] is 0.489; in series [8], 0.492; in [9], 0.494. Regarding “GCACTTAA (double strand) [8-mer GCACTTAA]”, the binding signal (PBM E-score (-0.5 to 0.5)) in series [3] stood at 0.469.

Consider “CTAATTAG (double strand) [8-mer CTAATTAG]”, for which the binding signal (PBM E-score (-0.5 to 0.5)) in series [4] was 0.495; in [5] it was 0.497; in series [2] it was 0.473.

Regarding “GGGGATTA (double strand) [8-mer GGGGATTA]”, the binding signal (PBM E-score (-0.5 to 0.5)) in series [7] amounted to 0.495; in [8], 0.494; in series [9], 0.497. “GGGATTAA (double strand) [8-mer GGGATTAA]”: the binding signal (PBM E-score (-0.5 to 0.5)) was 0.494 in series [7], 0.493 in series [8] and 0.496 in series [9]. In series [4], “TAATTAAA (double strand) [8-mer TAATTAAA]” registered a binding signal (PBM E-score (-0.5 to 0.5)) of 0.493. For the sequence “CTAAAACC (double strand) [8-mer CTAAAACC]”, the binding signal (PBM E-score (-0.5 to 0.5)) in series [1] was determined as 0.493. In [1], “ATTAAAAC (double strand) [8-mer ATTAAAAC]” registered a binding signal (PBM E-score (-0.5 to 0.5)) of 0.487.
